“And” between values parts separate entries of the source, which are not always exact repeats. Identical values can stand only once.
Target: protective antigen (PA) prepore (Bacillus anthracis)
Assay: cryo-EM structure

Substance: protective antigen (PA) prepore (complex)
- stoichiometry N: 7 and 8

Source: doi:10.1101/2021.04.18.440036
